B1: glyceraldehyde-3-phosphate dehydrogenase (GAPDH), human, endogenous in human retinal pericytes (hRP) (enzyme)
chain: not shown
notes: Endogenous protein in lysates of human retinal pericytes; The proposed model says GAPDH is S-nitrosylated when it associates with Siah1
B2: E3 ubiquitin ligase seven in absentia homolog 1 (Siah1), human, endogenous in human retinal pericytes (hRP) (enzyme)
chain: MSRQTATALPTGTSKCPPSQRVPALTGTTASNNDLASLFECPVCFDYVLPPILQCQSGHLVCSNCRPKLTCCPTCRGPLGSIRNLAMEKVANSVLFPCKYASSGCEITLPHTEKADHEELCEFRPYSCPCPGASCKWQGSLDAVMPHLMHQHKSITTLQGEDIVFLATDINLPGAVDWVMMQSCFGFHFMLVLEKQEKYDGHQQFFAIVQLIGTRKQAENFAYRLELNGHRRRLTWEATPRSIHEGIATAIMNSDCLVFDTSIAQLFAENGNLGINVTISMC
notes: Endogenous protein in lysates of human retinal pericytes, immunoprecipitated with an anti-Siah1 antibody

In test [1] the target is B2. Nature of the test: co-immunoprecipitation from hRP lysates: IP anti-Siah1, western blot anti-GAPDH.
Experimental: (§1) Equal amounts of protein (1000 μg) from each sample were mixed with 10 μg of anti-Siah1 antibody overnight at 4° C. Pierce Protein A/G Magnetic Beads were pre-cleared and added to the antigen sample/antibody mixture at room temperature for 1 hr. Beads were collected with a magnetic stand and eluted using 50 μl 4× SDS-PAGE reducing sample buffer at 100° C. for 10 mins. The immuno-complexes were then subjected to Western blot analysis. Siah1-depleted samples served as controls for total pull down of Siah1 from each lysate.
The target in test [2] is B1. Described as above.
Experimental: as §1

Take B1: in test [1], the “fold increase in GAPDH/Siah1 association (high glucose against osmotic control)” value is 1.5 fold.
Turning to B2, the binding result in test [2] is “binds”.

(Values after US20180296639A1 (Hoffmann-La Roche, published 2018).)
